Experimental findings from PMC8204860, “Structural basis of [sequence]‐mediated Rab1 activation” (The EMBO Journal, 2021) are described below.

The assay concerns the target T1, Trs31 (Saccharomyces cerevisiae, UniProt Q03337 1-283).
T1 construct: Trs31, TRAPP core subunit, S. cerevisiae; also called Trs31 subunit
T1 sequence: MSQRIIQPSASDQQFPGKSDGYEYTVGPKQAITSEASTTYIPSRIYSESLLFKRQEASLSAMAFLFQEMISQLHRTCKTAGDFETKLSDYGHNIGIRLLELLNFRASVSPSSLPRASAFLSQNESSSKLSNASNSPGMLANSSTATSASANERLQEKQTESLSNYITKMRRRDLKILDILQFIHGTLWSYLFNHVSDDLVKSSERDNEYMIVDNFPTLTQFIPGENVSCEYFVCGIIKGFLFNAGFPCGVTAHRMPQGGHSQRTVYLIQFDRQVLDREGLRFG
The assay is described as follows: cryo-EM structure; TRAPPIII (after anion exchange) mixed 1:3 with Ypt1-7xHis, overnight at 4°C with calf intestinal alkaline phosphatase, complex isolated by SEC in 10 mM Tris pH 7.5, 350 mM NaCl, 1 mM DTT; 3.7 Å reconstruction. The conditions noted are these: both partners purified. A general note: Size exclusion chromatography separates by hydrodynamic size, large species first.

B1: Rab1/Ypt1 (Ypt1-7xHis) (natural protein)
chain: not shown
notes: Rab1/Ypt1, budding yeast GTPase; Made nucleotide-free in the complex by alkaline phosphatase. pGEX-6P backbone; gift from the T. Bretscher laboratory; also called GST-Ypt1-7xHis (before cleavage); source: E. coli Rosetta2, purified (glutathione resin, eluted by PreScission cleavage of GST); not shown: GST, N-terminal, cleaved
Turning to B1, the binding result is recorded as “binds”.
